Assay results from US20210179706A1.
“And” between values parts separate entries of the source, which are not always exact repeats. Identical values can stand only once. Like-named read-outs stand apart in the source and are kept apart here.

What was measured:
[1] = molecular target: human IL-1β-His-Bio (human) (UniProt P01584); assay: ELISA, IL-1β-His-Bio captured on streptavidin; antibody 0.333 µg/mL
[2] = molecular target: human IL-1β-hFc (human) (UniProt P01584); assay: competition ELISA on coated IL-1β-hFc, competitor IL-1R1(1-332)-his (anti-His-HRP read-out); antibody 0.012 µg/mL
[3] = molecular target: human IL-1β-His-Bio (human) (UniProt P01584); assay: ELISA, IL-1β-His-Bio captured on streptavidin; antibody 1 µg/mL
[4] = molecular target: human IL-1β-hFc (human) (UniProt P01584); assay: competition ELISA on coated IL-1β-hFc, competitor IL-1R1(1-332)-his (anti-His-HRP read-out); antibody 1.000 µg/mL
[5] = molecular target: human IL-1β-hFc (human) (UniProt P01584); assay: competition ELISA on coated IL-1β-hFc, competitor IL-1R1(1-332)-his (anti-His-HRP read-out); antibody 0.037 µg/mL
[6] = molecular target: human IL-1β-hFc (human) (UniProt P01584); assay: competition ELISA on coated IL-1β-hFc, competitor IL-1R1(1-332)-his (anti-His-HRP read-out); antibody 0.333 µg/mL
[7] = molecular target: human IL-1β-His-Bio (human) (UniProt P01584); assay: ELISA, IL-1β-His-Bio captured on streptavidin; antibody 0.333 µg/mL diluted 1:729
[8] = molecular target: human IL-1β-hFc (human) (UniProt P01584); assay: competition ELISA on coated IL-1β-hFc, competitor IL-1R1(1-332)-his (anti-His-HRP read-out); antibody 0.111 µg/mL
[9] = molecular target: human IL-1β-His-Bio (human) (UniProt P01584); assay: ELISA, IL-1β-His-Bio captured on streptavidin; 4-parameter fit
[10] = molecular target: human IL-1β-hFc (human) (UniProt P01584); assay: competition ELISA on coated IL-1β-hFc, competitor IL-1R1(1-332)-his (anti-His-HRP read-out); antibody 0.333 µg/mL; remark: listed apart in the source
[11] = molecular target: human IL-1β-hFc (human) (UniProt P01584); assay: competition ELISA on coated IL-1β-hFc, competitor IL-1R1(1-332)-his; 4-parameter fit
[12] = molecular target: human IL-1β-His-Bio (human) (UniProt P01584); assay: ELISA, IL-1β-His-Bio captured on streptavidin; antibody 0.012 µg/mL
[13] = molecular target: human IL-1β-His-Bio (human) (UniProt P01584); assay: ELISA, IL-1β-His-Bio captured on streptavidin; antibody 0.333 µg/mL; remark: listed apart in the source
[14] = molecular target: human IL-1β-His-Bio (human) (UniProt P01584); assay: ELISA, IL-1β-His-Bio captured on streptavidin; antibody 0.037 µg/mL
[15] = molecular target: human IL-1β-hFc (human) (UniProt P01584); assay: competition ELISA on coated IL-1β-hFc, competitor IL-1R1(1-332)-his (anti-His-HRP read-out); antibody 0.037 µg/mL; remark: listed apart in the source
[16] = molecular target: human IL-1β-his (human) (UniProt P01584); assay: SPR (Biacore), antibody amine-coupled on CM5, IL-1β 1.56-25 nM as analyte
[17] = molecular target: human IL-1β-hFc (human) (UniProt P01584); assay: competition ELISA on coated IL-1β-hFc, competitor IL-1R1(1-332)-his (anti-His-HRP read-out); antibody 0.004 µg/mL
[18] = molecular target: human IL-1β-His-Bio (human) (UniProt P01584); assay: ELISA, IL-1β-His-Bio captured on streptavidin; antibody 0.004 µg/mL
[19] = molecular target: human IL-1β-hFc (human) (UniProt P01584); assay: competition ELISA on coated IL-1β-hFc, competitor IL-1R1(1-332)-his (anti-His-HRP read-out); antibody 0.001 µg/mL
[20] = molecular target: human IL-1β-His-Bio (human) (UniProt P01584); assay: ELISA, IL-1β-His-Bio captured on streptavidin; antibody 0.111 µg/mL
[21] = molecular target: human IL-1β-His-Bio (human) (UniProt P01584); assay: ELISA, IL-1β-His-Bio captured on streptavidin; antibody 0.001 µg/mL
[22] = molecular target: human IL-1β-His-Bio (human) (UniProt P01584); assay: ELISA, IL-1β-His-Bio captured on streptavidin; antibody 0.333 µg/mL diluted 1:243
[23] = molecular target: human IL-1β-hFc (human) (UniProt P01584); assay: competition ELISA on coated IL-1β-hFc, competitor IL-1R1(1-332)-his (anti-His-HRP read-out); antibody 0.004 µg/mL; remark: listed apart in the source
[24] = molecular target: human IL-1β-His-Bio (human) (UniProt P01584); assay: ELISA, IL-1β-His-Bio captured on streptavidin; 4-parameter fit; remark: listed apart in the source
[25] = molecular target: human IL-1β-His-Bio (human) (UniProt P01584); assay: ELISA, IL-1β-His-Bio captured on streptavidin; antibody 0.333 µg/mL diluted 1:81
[26] = molecular target: human IL-1β-hFc (human) (UniProt P01584); assay: competition ELISA on coated IL-1β-hFc, competitor IL-1R1(1-332)-his (anti-His-HRP read-out); antibody 0.001 µg/mL; remark: listed apart in the source
[27] = molecular target: human IL-1β-His-Bio (human) (UniProt P01584); assay: ELISA, IL-1β-His-Bio captured on streptavidin; antibody 0.333 µg/mL diluted 1:9
[28] = molecular target: human IL-1β-hFc (human) (UniProt P01584); assay: competition ELISA on coated IL-1β-hFc, competitor IL-1R1(1-332)-his (anti-His-HRP read-out); antibody 0.111 µg/mL; remark: listed apart in the source
[29] = molecular target: human IL-1β-His-Bio (human) (UniProt P01584); assay: ELISA, IL-1β-His-Bio captured on streptavidin; antibody 0.333 µg/mL diluted 1:3
[30] = molecular target: human IL-1β-hFc (human) (UniProt P01584); assay: competition ELISA on coated IL-1β-hFc, competitor IL-1R1(1-332)-his (anti-His-HRP read-out); antibody 0.012 µg/mL; remark: listed apart in the source
[31] = molecular target: human IL-1β-His-Bio (human) (UniProt P01584); assay: ELISA, IL-1β-His-Bio captured on streptavidin; antibody 0.333 µg/mL diluted 1:27
[32] = molecular target: human IL-1β-hFc (human) (UniProt P01584); assay: competition ELISA on coated IL-1β-hFc, competitor IL-1R1(1-332)-his; 4-parameter fit; remark: listed apart in the source
[33] = molecular target: human IL-1β-hFc (human) (UniProt P01584); assay: competition ELISA on coated IL-1β-hFc, competitor IL-1R1(1-332)-his (anti-His-HRP read-out); antibody 1.000 µg/mL; remark: listed apart in the source

OD (450 nm) [1]: 2.81 OD450 and 2.94 OD450
OD (450 nm) of blocking assay [2]: 0.797 OD450 and 0.706 OD450
OD (450 nm) [3]: 2.87 OD450
OD (450 nm) of blocking assay [4]: 0.093 OD450 and 0.088 OD450
OD (450 nm) of blocking assay [5]: 0.736 OD450 and 0.705 OD450
OD (450 nm) of blocking assay [6]: 0.104 OD450 and 0.126 OD450
OD (450 nm) [7]: 0.315 OD450
OD (450 nm) of blocking assay [8]: 0.091 OD450 and 0.092 OD450
EC50 [9]: 0.057 nM
OD (450 nm) of blocking assay [10]: 0.059 OD450 and 0.057 OD450
EC50 [11]: 0.26 nM
OD (450 nm) [12]: 2.06 OD450 and 2.12 OD450
OD (450 nm) [13]: 2.9 OD450 and 2.88 OD450
OD (450 nm) [14]: 2.64 OD450 and 2.68 OD450
OD (450 nm) of blocking assay [15]: 0.366 OD450 and 0.379 OD450
Kd [16]: 0.0979 nM
OD (450 nm) of blocking assay [17]: 0.727 OD450 and 0.684 OD450
OD (450 nm) [18]: 1.26 OD450 and 1.2 OD450
OD (450 nm) of blocking assay [19]: 0.738 OD450 and 0.559 OD450
OD (450 nm) [20]: 2.9 OD450 and 2.89 OD450
OD (450 nm) [21]: 0.581 OD450 and 0.559 OD450
OD (450 nm) [22]: 0.408 OD450 and 0.573 OD450
OD (450 nm) of blocking assay [23]: 0.765 OD450 and 0.735 OD450
EC50 [24]: 0.039 nM
OD (450 nm) [25]: 0.852 OD450 and 1.11 OD450
OD (450 nm) of blocking assay [26]: 0.577 OD450 and 0.72 OD450
OD (450 nm) [27]: 2.46 OD450 and 2.61 OD450
OD (450 nm) of blocking assay [28]: 0.519 OD450 and 0.526 OD450
OD (450 nm) [29]: 2.68 OD450 and 2.88 OD450
OD (450 nm) of blocking assay [30]: 0.572 OD450 and 0.579 OD450
OD (450 nm) [31]: 1.7 OD450 and 1.96 OD450
EC50 [32]: 0.961 nM
OD (450 nm) of blocking assay [33]: 0.053 OD450 and 0.052 OD450
Substance: canakinumab (trade name Ilaris) (antibody)
